Results from patent US8309097 (VERENIGING VOOR CHRISTELIJK WETENSCHAPPELIJK ONDERWIJS, dated 2012).
Where two headings read alike, the source gives them in different places.

Key:
[1] = target: T1, ICAM-3 coated on fluorescent beads (UniProt P32942 30-485)
T1 sequence: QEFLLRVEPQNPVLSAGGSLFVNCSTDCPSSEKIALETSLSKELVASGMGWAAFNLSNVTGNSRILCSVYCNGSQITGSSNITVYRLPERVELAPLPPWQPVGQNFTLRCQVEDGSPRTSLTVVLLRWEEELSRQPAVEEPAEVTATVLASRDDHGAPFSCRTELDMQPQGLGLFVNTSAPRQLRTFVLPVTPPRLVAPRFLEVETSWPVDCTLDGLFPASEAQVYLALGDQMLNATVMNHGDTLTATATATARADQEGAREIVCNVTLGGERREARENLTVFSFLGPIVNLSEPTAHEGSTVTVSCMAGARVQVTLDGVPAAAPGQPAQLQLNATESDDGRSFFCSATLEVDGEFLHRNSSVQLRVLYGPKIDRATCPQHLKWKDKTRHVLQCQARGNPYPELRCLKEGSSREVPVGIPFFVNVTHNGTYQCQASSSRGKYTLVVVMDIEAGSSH

ICAM-3-Fc = target: T2, ICAM-3-Fc (UniProt P32942 30-485); test: beads coated with ICAM-3-Fc, immature DC and K562-DC-SIGN
T2 construct: also called pIG-ICAM-3-Fc product; Fc chimera of ICAM-3
T2 sequence (looked up): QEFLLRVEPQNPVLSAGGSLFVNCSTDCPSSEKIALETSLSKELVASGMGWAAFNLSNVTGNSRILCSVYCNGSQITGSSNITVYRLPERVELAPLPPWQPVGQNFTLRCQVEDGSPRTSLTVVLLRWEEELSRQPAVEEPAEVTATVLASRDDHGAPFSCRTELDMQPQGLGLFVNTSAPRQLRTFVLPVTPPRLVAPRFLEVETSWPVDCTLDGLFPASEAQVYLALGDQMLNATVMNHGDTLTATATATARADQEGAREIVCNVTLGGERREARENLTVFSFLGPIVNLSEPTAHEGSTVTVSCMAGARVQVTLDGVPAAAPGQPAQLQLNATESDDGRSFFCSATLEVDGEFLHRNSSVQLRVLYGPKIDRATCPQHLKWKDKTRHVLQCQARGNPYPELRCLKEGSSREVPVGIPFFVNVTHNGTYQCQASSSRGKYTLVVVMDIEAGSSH

[2] = target: T1, ICAM-3 coated on fluorescent beads; test: fluorescent bead adhesion assay, K562 transfectants
ICAM-3 from granulocytes = target: T3, ICAM-3 from granulocytes (UniProt P32942 30-547); test: ELISA: ICAM-3 captured from granulocyte lysate by coated antibody, DC-SIGN-Fc added (FIG. 22C)
T3 construct: also called ICAM-3 captured or immunoprecipitated from granulocyte lysate
T3 sequence (looked up): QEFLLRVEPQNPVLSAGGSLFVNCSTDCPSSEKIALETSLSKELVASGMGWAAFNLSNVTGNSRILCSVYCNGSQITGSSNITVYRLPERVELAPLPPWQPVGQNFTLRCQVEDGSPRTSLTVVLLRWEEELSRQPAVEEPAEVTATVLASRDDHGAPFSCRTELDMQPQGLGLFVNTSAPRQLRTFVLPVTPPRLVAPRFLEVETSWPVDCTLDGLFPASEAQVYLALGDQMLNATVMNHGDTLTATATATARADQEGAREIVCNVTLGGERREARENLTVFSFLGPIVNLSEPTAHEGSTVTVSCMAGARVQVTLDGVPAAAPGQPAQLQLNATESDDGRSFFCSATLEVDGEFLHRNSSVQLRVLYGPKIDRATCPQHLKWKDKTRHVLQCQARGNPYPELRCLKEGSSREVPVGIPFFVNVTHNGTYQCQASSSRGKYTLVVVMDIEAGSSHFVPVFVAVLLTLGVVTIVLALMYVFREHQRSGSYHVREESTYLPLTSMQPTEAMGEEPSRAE

B1: DC-SIGN (CD209), wild type, expressed on K562 transfectants or immature dendritic cells (receptor, human, UniProt Q9NNX6 1-404, looked up)
chain: MSDSKEPRLQQLGLLEEEQLRGLGFRQTRGYKSLAGCLGHGPLVLQLLSFTLLAGLLVQVSKVPSSISQEQSRQDAIYQNLTQLKAAVGELSEKSKLQEIYQELTQLKAAVGELPEKSKLQEIYQELTRLKAAVGELPEKSKLQEIYQELTWLKAAVGELPEKSKMQEIYQELTRLKAAVGELPEKSKQQEIYQELTRLKAAVGELPEKSKQQEIYQELTRLKAAVGELPEKSKQQEIYQELTQLKAAVERLCHPCPWEWTFFQGNCYFMSNSQRNWHDSITACKEVGAQLVVIKSAEEQNFLQLQSSRSNRFTWMGLSDLNQEGTWQWVDGSPLLPSFKQYWNRGEPNNVGEEDCAEFSGNGWNDDKCNLAKFWICKKSAASCSRDEEQFLSPAPATPNPPPA
notes: whole, on cells; also called cellular DC-SIGN; K562-DC-SIGN
binding result [1]: binds | binding result (ICAM-3-Fc): binds

B2: DC-SIGN E347Q mutant expressed by K562 cells (receptor)
chain: MSDSKEPRLQQLGLLEEEQLRGLGFRQTRGYKSLAGCLGHGPLVLQLLSFTLLAGLLVQVSKVPSSISQEQSRQDAIYQNLTQLKAAVGELSEKSKLQEIYQELTQLKAAVGELPEKSKLQEIYQELTRLKAAVGELPEKSKLQEIYQELTWLKAAVGELPEKSKMQEIYQELTRLKAAVGELPEKSKQQEIYQELTRLKAAVGELPEKSKQQEIYQELTRLKAAVGELPEKSKQQEIYQELTQLKAAVERLCHPCPWEWTFFQGNCYFMSNSQRNWHDSITACKEVGAQLVVIKSAEEQNFLQLQSSRSNRFTWMGLSDLNQEGTWQWVDGSPLLPSFKQYWNRGQPNNVGEEDCAEFSGNGWNDDKCNLAKFWICKKSAASCSRDEEQFLSPAPATPNPPPA
notes: whole, on cells
binding result [2]: no binding

B3: DC-SIGN-Fc (Fc fusion, human, UniProt Q9NNX6 64-404, looked up, not shown: a dimerising Fc or GST)
chain: PSSISQEQSRQDAIYQNLTQLKAAVGELSEKSKLQEIYQELTQLKAAVGELPEKSKLQEIYQELTRLKAAVGELPEKSKLQEIYQELTWLKAAVGELPEKSKMQEIYQELTRLKAAVGELPEKSKQQEIYQELTRLKAAVGELPEKSKQQEIYQELTRLKAAVGELPEKSKQQEIYQELTQLKAAVERLCHPCPWEWTFFQGNCYFMSNSQRNWHDSITACKEVGAQLVVIKSAEEQNFLQLQSSRSNRFTWMGLSDLNQEGTWQWVDGSPLLPSFKQYWNRGEPNNVGEEDCAEFSGNGWNDDKCNLAKFWICKKSAASCSRDEEQFLSPAPATPNPPPA
notes: range 64-404; also called soluble DC-SIGN-Fc; DC-SIGN-Fe
binding result (ICAM-3 from granulocytes): no binding
